The results in this text go back to publication PMC6379675, “Structural insights into chromosome attachment to the nuclear envelope by an inner nuclear membrane protein Bqt4 in fission yeast” (Nucleic Acids Research, 2018).

Residue numbers refer to the chain shown, from its start. Names and notes keep the numbering of the source. Ends that are not written are not given here.

The target of assay [1] is T1, SUMO_(21–92)-Bqt4_(8–140) fusion protein (S. pombe, UniProt O60158 8-140).
T1 construct: Bqt4, S. pombe, residues 8-140; crystallisation fusion; also called SUMO-Bqt4NTD; Sumo-fused Bqt4_(8–140); not shown: SUMO (residues 21-92), N-terminal, kept
T1 sequence (looked up): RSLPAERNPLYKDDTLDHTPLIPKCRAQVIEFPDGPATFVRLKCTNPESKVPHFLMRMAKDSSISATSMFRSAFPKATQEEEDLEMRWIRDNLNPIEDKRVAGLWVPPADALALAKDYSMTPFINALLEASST
As to the kind of experiment: crystal structure; Bqt4 construct and peptide mixed at a molar ratio of 1:1.5; molecular replacement. Particulars: both partners purified.

Assay [2] deals with T2, Bqt4_(2–140), N-terminal domain of Bqt4 (S. pombe, UniProt O60158 2-140).
T2 construct: Bqt4, S. pombe inner nuclear membrane protein, residues 2-140; also called Bqt4NTD; Bqt4NTD^WT; source: E. coli BL21(DE3), purified (Ni-NTA, on-beads Ulp1 digestion, Superdex200); not shown: His6, N-terminal, cleaved; SUMO, N-terminal, cleaved
T2 sequence (looked up): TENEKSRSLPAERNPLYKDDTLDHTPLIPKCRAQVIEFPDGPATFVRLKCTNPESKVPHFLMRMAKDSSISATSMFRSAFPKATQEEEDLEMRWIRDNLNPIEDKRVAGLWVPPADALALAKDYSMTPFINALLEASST
The assay is described as follows: fluorescence polarisation; 100 nM FITC-labeled Lem2BBM with Bqt4NTD from 20 nM to 50 μM; 25 mM Tris–HCl pH 8.0, 150 mM NaCl, 10% glycerol; 25°C. The conditions noted are these: both partners purified.

In assay [3] the target is T2, Bqt4_(2–140), N-terminal domain of Bqt4. The assay is described as follows: pull-down; 30 μg GST-tagged Rap1 and 20 μg purified Bqt4 on glutathione-Sepharose 4B beads, 25 mM Tris pH 8.0, 100 mM NaCl, 10% glycerol, 4°C, 40 min; SDS-PAGE. The conditions noted are these: both partners purified.
The target in another assay is T3, Bqt4_(2–180) (S. pombe, UniProt O60158 2-180).
T3 construct: Bqt4, S. pombe, residues 2-180; also called N-terminal region of Bqt4; source: E. coli BL21(DE3), purified (Ni-NTA, on-beads Ulp1 digestion, Superdex200); not shown: His6, N-terminal, cleaved; SUMO, N-terminal, cleaved
T3 sequence (looked up): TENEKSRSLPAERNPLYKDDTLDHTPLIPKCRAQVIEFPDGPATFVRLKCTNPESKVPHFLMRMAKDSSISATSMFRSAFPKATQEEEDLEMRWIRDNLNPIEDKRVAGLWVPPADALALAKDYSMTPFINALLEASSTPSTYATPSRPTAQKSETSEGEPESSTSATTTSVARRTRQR
The description is as above. The conditions noted are these: both partners purified.

The target in assay [4] is T2, Bqt4_(2–140), N-terminal domain of Bqt4. As to the kind of experiment: ITC; ITC200; peptide (Rap1 479-527 at 1000–1500 μM) titrated into Bqt4 2-140 (100–150 μM), 20°C, 20 mM Tris–HCl pH 8.0, 150 mM NaCl; one binding site model; two independent experiments. Particulars: both partners purified. (Isothermal titration calorimetry measures the heat released or taken up as one component is titrated into another.)

The target of a further assay is T4, Bqt4NTD R33A (S. pombe, UniProt O60158 2-140, R33A).
T4 construct: Bqt4, S. pombe, residues 2-140; also called Bqt4 (R33A); source: E. coli BL21(DE3), purified (Ni-NTA, on-beads Ulp1 digestion, Superdex200); not shown: His6, N-terminal, cleaved; SUMO, N-terminal, cleaved
T4 sequence (looked up): T2 sequence (looked up) with R32A
The assay is described as above. The conditions noted are these: both partners purified.

Another assay addresses T5, Bqt4NTD R33A, O60158.
T5 chain: T2 sequence (looked up) with R32A
The assay is described as follows: ITC. The conditions noted are these: chain shown with the change;; parent: 11.4 ± 1.2.

The target in assay [5] is T6, Bqt4_(2–140), N-terminal domain of Bqt4 (S. pombe, UniProt O60158 2-140).
T6 chain: T2 sequence (looked up)
The assay is described as follows: ITC.

In another assay the target is T7, Bqt4NTD D90R (S. pombe, UniProt O60158 2-140, D90 into arginine).
T7 construct: Bqt4, S. pombe, residues 2-140; also called Bqt4^D90 substituted into arginine; source: E. coli BL21(DE3), purified (Ni-NTA, on-beads Ulp1 digestion, Superdex200); not shown: His6, N-terminal, cleaved; SUMO, N-terminal, cleaved
T7 sequence (looked up): T2 sequence (looked up) with D89R
As to the kind of experiment: ITC; ITC200; peptide (Rap1 479-527 at 1000–1500 μM) titrated into Bqt4 2-140 (100–150 μM), 20°C, 20 mM Tris–HCl pH 8.0, 150 mM NaCl; one binding site model; two independent experiments. The conditions noted are these: both partners purified.

The target in the next assay is T8, Bqt4NTD D90R, O60158.
T8 chain: T2 sequence (looked up) with D89R
The assay is described as follows: ITC. Particulars: chain shown with the change;; parent: 11.4 ± 1.2.

B1: Rap1_(498–512) (peptide)
peptide: GPLDDEEAFEKQVTSSYS
notes: three extra residues left at the N-terminus after removal of GST by 3C protease; also called Rap1BBM (in the crystal); source: E. coli BL21(DE3), purified (glutathione-Sepharose 4B, on-beads 3C digestion, Superdex75); not shown: GST, N-terminal, cleaved
As to B1, the binding result in assay [1] was “binds”.

B2: FITC-labeled Lem2BBM (peptide, UniProt Q10109 261-279, looked up)
chain: SAEEDDELFQNYVLQQTRK
modifications: also: FITC label, position not given here
notes: also called fluorescent FITC-labeled Lem2BBM; source: E. coli BL21(DE3), purified; labeled with EZLabel Protein FITC Labeling Kit; not shown: GST, N-terminal, cleaved
As usually defined, the Kd is the free concentration of one partner at which half of the binding sites on the other are occupied at equilibrium, for simple one-to-one binding. Turning to B2, in [2], the affinity, expressed as Kd, was 0.61 µM.

B3: GST-tagged Rap1_(490–513) (peptide, UniProt Q96TL7 490-513, looked up)
chain: ENISEKSSDDEEAFEKQVTSSYSS
notes: also called GST-Rap1BBM; source: E. coli BL21(DE3); not shown: GST, N-terminal, kept
On to B3, for which the binding result (in assay [3]; with Bqt4_(2–180)) was “binds” throughout.

B4: Rap1_(479–527) S497E (domain or fragment, S. pombe, UniProt Q96TL7 479-527, looked up)
chain: EIPLLSDYSDSENISEKSEDDEEAFEKQVTSSYSSPIKVKSQGKSSKGS
notes: phosphomimetic; also called Rap1^S497E; source: E. coli BL21(DE3), purified (glutathione-Sepharose 4B, on-beads 3C digestion, Superdex75); not shown: GST, N-terminal, cleaved
For the molecule B4, the binding result (in assay [4]; with Bqt4NTD R33A) was “binds” in each case. The Kd in the assay with Bqt4NTD R33A, O60158 was 24.1 µM; in assay [5], 2.6 µM.

B5: Rap1_(479–527) S513E (domain or fragment, S. pombe, UniProt Q96TL7 479-527, looked up)
chain: B4 chain with E19S, S35E
notes: phosphomimetic; also called Rap1^S513E; source: E. coli BL21(DE3), purified (glutathione-Sepharose 4B, on-beads 3C digestion, Superdex75); not shown: GST, N-terminal, cleaved
Regarding B5, in [4], the “fold decrease in binding affinity against wild-type Rap1” value stood at 5 fold. Moreover, the binding result with Bqt4NTD D90R was “binds”. Moreover, the Kd amounted to 21.2 µM in the assay with Bqt4NTD D90R, O60158 and 57.8 µM in [5].
